Laboratory results from the supplement of paper PMC10567573.

B1: RAD51 (parent)
chain: APKKELINIKGISEAKADKILAEA

Variants of: B1
Assay: protein stability index of a GFP-peptide fusion (GPS, HEK-293T) (PSI 1-6); higher = more stable
Conditions: c terminus: a fixed tail appended
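Further: lentivirally expressed fusions sorted by FACS into six bins by GFP to DsRed ratio, PSI derived from sequencing read proportions per bin multiplied by bin number.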

For K4P, which protein stability index is on record?
Its protein stability index is 5.05.

For K4N, which protein stability index is on record?
The protein stability index was 4.95.

With K4A as the variant, how does the protein stability index read?
The protein stability index was 4.44.

With K4H as the variant, how does the protein stability index read?
The protein stability index was 4.17.

For K4E, which protein stability index is on record?
The protein stability index was 5.22.

For K4I, which protein stability index is on record?
Its protein stability index is 4.25.

Which protein stability index does the source give for K4D here?
Its protein stability index is 5.31.

Which protein stability index does the source give for K4M here?
Its protein stability index is 4.13.

Which protein stability index does the source give for K4L here?
Its protein stability index is 4.19.

For K4C, which protein stability index is on record?
Its protein stability index is 4.68.

With K4Y as the variant, how does the protein stability index read?
The protein stability index was 4.52.

Which protein stability index does the source give for K4G here?
Its protein stability index is 4.57.

Which protein stability index does the source give for K4R here?
The protein stability index was 4.39.

Which protein stability index does the source give for A15R here?
Its protein stability index is 4.4.

Which protein stability index does the source give for A15I here?
Its protein stability index is 4.77.

Which protein stability index does the source give for A15C here?
Its protein stability index is 4.63.

Which protein stability index does the source give for A15F here?
Its protein stability index is 4.45.

Which protein stability index does the source give for A15Y here?
The protein stability index was 3.58.

Which protein stability index does the source give for A15M here?
Its protein stability index is 4.41.

With A15H as the variant, how does the protein stability index read?
The protein stability index was 4.18.

For A15W, which protein stability index is on record?
Its protein stability index is 3.88.

For A15N, which protein stability index is on record?
Its protein stability index is 4.36.

Which protein stability index does the source give for A15V here?
The protein stability index was 4.95.

Which protein stability index does the source give for A15P here?
The protein stability index was 4.41.

Which protein stability index does the source give for A15K here?
Its protein stability index is 4.95.

With E5F as the variant, how does the protein stability index read?
Its protein stability index is 3.04.

With E5A as the variant, how does the protein stability index read?
Its protein stability index is 4.12.

With E5C as the variant, how does the protein stability index read?
The protein stability index was 3.56.

Which protein stability index does the source give for E5I here?
Its protein stability index is 3.4.

With E5T as the variant, how does the protein stability index read?
Its protein stability index is 3.85.

For E5G, which protein stability index is on record?
The protein stability index was 4.63.

With E5M as the variant, how does the protein stability index read?
Its protein stability index is 3.7.

With E5L as the variant, how does the protein stability index read?
The protein stability index was 3.65.

For I7A, which protein stability index is on record?
Its protein stability index is 5.13.

For I7E, which protein stability index is on record?
The protein stability index was 5.17.

Which protein stability index does the source give for I7Q here?
Its protein stability index is 4.83.

For I7V, which protein stability index is on record?
The protein stability index was 5.39.

For I7M, which protein stability index is on record?
The protein stability index was 4.99.

For I7H, which protein stability index is on record?
Its protein stability index is 5.01.

Which protein stability index does the source give for I7W here?
Its protein stability index is 4.49.

With I7R as the variant, how does the protein stability index read?
Its protein stability index is 4.59.

Which protein stability index does the source give for I7F here?
Its protein stability index is 3.8.

For I7K, which protein stability index is on record?
Its protein stability index is 4.78.

Which protein stability index does the source give for I7Y here?
The protein stability index was 4.73.

For I7L, which protein stability index is on record?
The protein stability index was 5.31.

Which protein stability index does the source give for I7G here?
The protein stability index was 4.8.

For A22D, which protein stability index is on record?
Its protein stability index is 5.38.

With A22Y as the variant, how does the protein stability index read?
Its protein stability index is 3.8.

Which protein stability index does the source give for A22F here?
The protein stability index was 3.98.

For A22C, which protein stability index is on record?
Its protein stability index is 4.25.

Which protein stability index does the source give for A22G here?
The protein stability index was 4.62.

Which protein stability index does the source give for A22T here?
Its protein stability index is 3.9.

For A22M, which protein stability index is on record?
The protein stability index was 4.75.

Which protein stability index does the source give for A22N here?
Its protein stability index is 4.59.

Which protein stability index does the source give for A22V here?
The protein stability index was 4.79.

With A22R as the variant, how does the protein stability index read?
The protein stability index was 4.84.

For A22W, which protein stability index is on record?
Its protein stability index is 3.58.

With A22H as the variant, how does the protein stability index read?
Its protein stability index is 4.52.

With A22P as the variant, how does the protein stability index read?
The protein stability index was 4.83.

For A22S, which protein stability index is on record?
The protein stability index was 4.61.

Which protein stability index does the source give for A22E here?
Its protein stability index is 5.28.

For A22Q, which protein stability index is on record?
The protein stability index was 5.15.

With N8Y as the variant, how does the protein stability index read?
Its protein stability index is 4.39.

For N8V, which protein stability index is on record?
The protein stability index was 4.07.

For N8H, which protein stability index is on record?
Its protein stability index is 4.69.

With N8D as the variant, how does the protein stability index read?
Its protein stability index is 4.88.

Which protein stability index does the source give for N8W here?
Its protein stability index is 3.75.

Which protein stability index does the source give for N8S here?
Its protein stability index is 4.32.

With N8Q as the variant, how does the protein stability index read?
Its protein stability index is 4.67.

Which protein stability index does the source give for N8K here?
The protein stability index was 4.13.

Which protein stability index does the source give for N8L here?
The protein stability index was 3.5.

Which protein stability index does the source give for N8P here?
Its protein stability index is 4.88.

For N8E, which protein stability index is on record?
Its protein stability index is 5.07.

With E14K as the variant, how does the protein stability index read?
The protein stability index was 4.4.

With E14W as the variant, how does the protein stability index read?
Its protein stability index is 3.89.

Which protein stability index does the source give for E14R here?
Its protein stability index is 4.05.

With E14H as the variant, how does the protein stability index read?
The protein stability index was 4.58.

For E14V, which protein stability index is on record?
The protein stability index was 4.81.

Which protein stability index does the source give for E14S here?
The protein stability index was 4.23.

Which protein stability index does the source give for E14F here?
The protein stability index was 3.48.

For E14I, which protein stability index is on record?
Its protein stability index is 3.68.

With E14L as the variant, how does the protein stability index read?
Its protein stability index is 3.83.

With E14P as the variant, how does the protein stability index read?
Its protein stability index is 4.96.

Which protein stability index does the source give for E14G here?
Its protein stability index is 4.8.

With E14Q as the variant, how does the protein stability index read?
The protein stability index was 4.76.

For E14N, which protein stability index is on record?
The protein stability index was 4.84.

With E14D as the variant, how does the protein stability index read?
The protein stability index was 4.99.

Which protein stability index does the source give for L6M here?
Its protein stability index is 4.92.

Which protein stability index does the source give for L6A here?
The protein stability index was 5.16.

With L6G as the variant, how does the protein stability index read?
Its protein stability index is 4.73.

For L6Y, which protein stability index is on record?
The protein stability index was 4.46.

For L6C, which protein stability index is on record?
Its protein stability index is 4.97.

For L6E, which protein stability index is on record?
Its protein stability index is 5.28.

With L6K as the variant, how does the protein stability index read?
The protein stability index was 5.

With L6R as the variant, how does the protein stability index read?
The protein stability index was 4.61.

Which protein stability index does the source give for L6T here?
The protein stability index was 5.06.

For L6S, which protein stability index is on record?
The protein stability index was 4.79.

For L6H, which protein stability index is on record?
The protein stability index was 5.13.

For L6Q, which protein stability index is on record?
The protein stability index was 4.79.

For K10D, which protein stability index is on record?
Its protein stability index is 5.12.

With K10A as the variant, how does the protein stability index read?
The protein stability index was 4.56.

For K10T, which protein stability index is on record?
The protein stability index was 4.68.

With K10P as the variant, how does the protein stability index read?
The protein stability index was 4.34.

For K10I, which protein stability index is on record?
Its protein stability index is 3.64.

For K10S, which protein stability index is on record?
Its protein stability index is 5.35.

With K10R as the variant, how does the protein stability index read?
Its protein stability index is 4.2.

For K10H, which protein stability index is on record?
The protein stability index was 4.59.

For K10W, which protein stability index is on record?
The protein stability index was 3.99.

With K10N as the variant, how does the protein stability index read?
Its protein stability index is 4.42.

With K10Q as the variant, how does the protein stability index read?
Its protein stability index is 4.46.

For E23V, which protein stability index is on record?
Its protein stability index is 3.73.

Which protein stability index does the source give for E23P here?
Its protein stability index is 4.34.

With E23C as the variant, how does the protein stability index read?
The protein stability index was 3.38.

For E23Y, which protein stability index is on record?
The protein stability index was 3.37.

For E23G, which protein stability index is on record?
The protein stability index was 4.1.

Which protein stability index does the source give for E23N here?
The protein stability index was 4.58.

Which protein stability index does the source give for E23S here?
Its protein stability index is 3.79.

Which protein stability index does the source give for E23F here?
Its protein stability index is 3.46.

For E23W, which protein stability index is on record?
The protein stability index was 3.02.

Which protein stability index does the source give for E23R here?
Its protein stability index is 3.85.

Which protein stability index does the source give for E23L here?
Its protein stability index is 3.43.

Which protein stability index does the source give for E23Q here?
Its protein stability index is 4.26.

Which protein stability index does the source give for A24Q here?
Its protein stability index is 5.1.

With A24C as the variant, how does the protein stability index read?
The protein stability index was 4.51.

With A24T as the variant, how does the protein stability index read?
Its protein stability index is 5.36.

With A24F as the variant, how does the protein stability index read?
The protein stability index was 3.53.

Which protein stability index does the source give for A24L here?
The protein stability index was 4.4.

For A24M, which protein stability index is on record?
The protein stability index was 4.34.

Which protein stability index does the source give for A24S here?
Its protein stability index is 4.75.

With A24P as the variant, how does the protein stability index read?
The protein stability index was 4.91.

For A24I, which protein stability index is on record?
Its protein stability index is 3.61.

With A24V as the variant, how does the protein stability index read?
The protein stability index was 4.26.

For G11A, which protein stability index is on record?
The protein stability index was 5.12.

Which protein stability index does the source give for G11T here?
Its protein stability index is 4.59.

For G11V, which protein stability index is on record?
Its protein stability index is 4.37.

Which protein stability index does the source give for G11M here?
Its protein stability index is 3.98.

With G11E as the variant, how does the protein stability index read?
Its protein stability index is 4.74.

For G11H, which protein stability index is on record?
The protein stability index was 4.8.

For G11K, which protein stability index is on record?
Its protein stability index is 4.68.

For G11N, which protein stability index is on record?
The protein stability index was 4.62.

Which protein stability index does the source give for G11D here?
Its protein stability index is 4.9.

With G11Q as the variant, how does the protein stability index read?
Its protein stability index is 4.72.

For G11I, which protein stability index is on record?
Its protein stability index is 3.39.

With G11Y as the variant, how does the protein stability index read?
Its protein stability index is 4.18.

With S13F as the variant, how does the protein stability index read?
Its protein stability index is 3.73.

With S13L as the variant, how does the protein stability index read?
Its protein stability index is 4.21.

Which protein stability index does the source give for S13W here?
Its protein stability index is 4.12.

With S13K as the variant, how does the protein stability index read?
The protein stability index was 4.7.

For S13A, which protein stability index is on record?
Its protein stability index is 4.97.

For S13M, which protein stability index is on record?
The protein stability index was 4.56.

Which protein stability index does the source give for S13Y here?
The protein stability index was 3.71.

Which protein stability index does the source give for S13N here?
Its protein stability index is 4.65.

For S13C, which protein stability index is on record?
Its protein stability index is 4.43.

For S13R, which protein stability index is on record?
The protein stability index was 4.36.

For S13T, which protein stability index is on record?
The protein stability index was 5.02.

Which protein stability index does the source give for S13H here?
The protein stability index was 5.38.

For S13I, which protein stability index is on record?
The protein stability index was 3.86.

For K3A, which protein stability index is on record?
The protein stability index was 4.92.

Which protein stability index does the source give for K3R here?
The protein stability index was 4.58.

For K3H, which protein stability index is on record?
The protein stability index was 4.87.

Which protein stability index does the source give for K3T here?
The protein stability index was 4.97.

Which protein stability index does the source give for K3Y here?
The protein stability index was 3.85.

With K3S as the variant, how does the protein stability index read?
The protein stability index was 4.55.

Which protein stability index does the source give for K3W here?
The protein stability index was 3.81.

For K3C, which protein stability index is on record?
Its protein stability index is 4.28.

With K3G as the variant, how does the protein stability index read?
Its protein stability index is 4.65.

For K3I, which protein stability index is on record?
The protein stability index was 4.77.
